Paper PMC6004067
Numbering of substitutions follows the chain as printed. In names and notes the source's numbering stands.

B1: TFIIB, full-length human, Flag- and His-tagged, Q00403 V245A; P246A; G247A; R248A; S249A (protein)
chain: MASTSRLDALPRVTCPNHPDAILVEDYRAGDMICPECGLVVGDRVIDVGSEWRTFSNDKATKDPSRVGDSQNPLLSDGDLSTMIGKGTGAASFDEFGNSKYQNRRTMSSSDRAMMNAFKEITTMADRINLPRNIVDRTNNLFKQVYEQKSLKGRANDAIASACLYIACRQEGVPRTFKEICAVSRISKKEIGRCFKLILKALETSVDLITTGDFMSRFCSNLCLPKQVQMAATHIARKAVELDLAAAAAPISVAAAAIYMASQASAEKRTQKEIGDIAGVADVTIRQSYRLIYPRAPDLFPTDFKFDTPVDKLPQL
B2: TFIIB, full-length human, Flag- and His-tagged, Q00403 R169E (protein)
chain: B1 chain with R169E, A245V, A246P, A247G, A248R, A249S
B3: TFIIB, full-length human, Flag- and His-tagged, Q00403 R185A; K188A; K189A (protein)
chain: B1 chain with R185A, K188A, K189A, A245V, A246P, A247G, A248R, A249S
B4: TFIIB, full-length human, Flag- and His-tagged, Q00403 S205A; V206A; D207A; L208A; I209A (protein)
chain: B1 chain with S205A, V206A, D207A, L208A, I209A, A245V, A246P, A247G, A248R, A249S
B5: TFIIB, full-length human, Flag- and His-tagged, Q00403 R169E; K188E (protein)
chain: B1 chain with R169E, K188E, A245V, A246P, A247G, A248R, A249S

Tests used:
[1] = target: SNAP complex (SNAPc) immobilized on Strep-Tactin beads, Q5SXM2;Q92966;Q13487;Q16533;O75971; experiment: pull-down on immobilized SNAPc, immunoblot quantification; settings: chain shown with the change
[2] = target: SNAP complex (SNAPc), Q5SXM2;Q92966;Q13487;Q16533;O75971; experiment: Flag-bead pull-down, immunoblot quantification; settings: chain shown with the change

Binder | ratio to parent [1] | ratio to parent [2]
B1 | 0.57 | 
B2 |  | 0.32
B3 | 0.04 | 
B4 | 0.54 | 
B5 |  | 0.13
